Experimental data taken from patent publication US20190062442A1.

Target: FLAG-tagged human PrP^c_N1 (recombinant N-terminal fragment of cellular prion protein, 23-111 amino-acids) (human) (UniProt P04156)
Sequence (P04156 23-111): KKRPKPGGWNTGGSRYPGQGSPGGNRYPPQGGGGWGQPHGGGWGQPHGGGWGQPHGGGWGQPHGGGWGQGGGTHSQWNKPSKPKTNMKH

Substance: anti-CD230 (Prion) antibody 6D11 Mu IgG2a (BioLegend, San Diego, Calif.)
- IC50: 17.6 nM
